Results as given in patent US6942988.

molecular target: carboxyl-terminal Myc-tagged Ptc-CTD (mouse Ptc with a 140-residue carboxyl-terminal deletion; amino acids 1-1,291) (mouse) (UniProt Q61115); experiment: Scatchard analysis of the high-affinity component of 32P-Shh-N binding to EcR-293 cells expressing Ptc-CTD, 4 C
Sequence (Q61115 1-1291, stated change not applied): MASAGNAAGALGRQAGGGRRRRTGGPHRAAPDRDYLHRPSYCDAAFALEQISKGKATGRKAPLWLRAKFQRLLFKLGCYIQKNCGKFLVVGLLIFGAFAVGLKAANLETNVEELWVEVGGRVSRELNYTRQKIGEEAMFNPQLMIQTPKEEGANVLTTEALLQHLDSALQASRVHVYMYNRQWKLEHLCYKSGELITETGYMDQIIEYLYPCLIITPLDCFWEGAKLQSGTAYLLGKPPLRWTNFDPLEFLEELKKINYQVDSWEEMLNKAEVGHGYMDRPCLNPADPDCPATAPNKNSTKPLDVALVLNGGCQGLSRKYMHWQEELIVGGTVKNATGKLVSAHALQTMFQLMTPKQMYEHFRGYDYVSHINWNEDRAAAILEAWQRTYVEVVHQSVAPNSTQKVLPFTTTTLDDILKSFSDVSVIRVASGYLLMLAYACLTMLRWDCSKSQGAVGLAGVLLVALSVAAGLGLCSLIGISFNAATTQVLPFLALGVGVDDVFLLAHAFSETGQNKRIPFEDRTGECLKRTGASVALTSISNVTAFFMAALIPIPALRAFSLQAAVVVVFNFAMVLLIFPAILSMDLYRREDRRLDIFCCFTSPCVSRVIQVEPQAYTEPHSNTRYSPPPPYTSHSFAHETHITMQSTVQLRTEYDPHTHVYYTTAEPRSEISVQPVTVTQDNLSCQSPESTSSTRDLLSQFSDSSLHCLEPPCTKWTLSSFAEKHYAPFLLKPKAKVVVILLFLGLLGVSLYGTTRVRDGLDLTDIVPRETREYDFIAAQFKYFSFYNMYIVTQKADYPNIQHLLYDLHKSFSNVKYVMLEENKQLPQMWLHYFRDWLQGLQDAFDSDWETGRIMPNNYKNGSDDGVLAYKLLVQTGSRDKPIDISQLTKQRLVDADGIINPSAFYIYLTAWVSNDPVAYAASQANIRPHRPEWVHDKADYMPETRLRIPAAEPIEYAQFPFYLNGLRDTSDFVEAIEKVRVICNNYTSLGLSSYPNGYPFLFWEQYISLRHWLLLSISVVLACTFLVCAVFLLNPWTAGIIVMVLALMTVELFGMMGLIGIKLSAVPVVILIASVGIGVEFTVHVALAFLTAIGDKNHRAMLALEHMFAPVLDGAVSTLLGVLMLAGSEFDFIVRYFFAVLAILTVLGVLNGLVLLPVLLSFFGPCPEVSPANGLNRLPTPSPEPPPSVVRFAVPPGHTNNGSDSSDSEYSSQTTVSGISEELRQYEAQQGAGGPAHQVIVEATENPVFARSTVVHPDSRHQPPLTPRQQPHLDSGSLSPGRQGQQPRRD

Row | Kd | Substance
1 | 0.48 nM | 32P-labeled Shh-N protein with a protein kinase A site tag (RRASV) at the carboxy terminus (from UniProt Q62226 25-198) (ligand)

molecular target: carboxyl-terminal Myc-tagged Ptc-CTD (mouse Ptc with a 140-residue carboxyl-terminal deletion; amino acids 1-1,291) (mouse) (UniProt Q61115); experiment: Table 1 'Ptc-CTD affinity'; for wild type the dissociation constant (KL), as from the Scatchard analysis of 32P-Shh-N on EcR-293 cells expressing Ptc-CTD

Row | Kd | Substance
2 | 0.48 nM | wild-type Sonic hedgehog amino-terminal signaling domain protein (Shh-N), aa 25-198 (from UniProt Q62226 25-198) (ligand)

molecular target: carboxyl-terminal Myc-tagged Ptc-CTD (mouse Ptc with a 140-residue carboxyl-terminal deletion; amino acids 1-1,291) (mouse) (UniProt Q61115); experiment: binding of 32P-Shh-N to EcR-293 cells expressing Ptc-CTD without competitor

Row | percent of input bound in the absence of competitor | Substance
3 | 35 % of input | 32P-labeled Shh-N protein with a protein kinase A site tag (RRASV) at the carboxy terminus (from UniProt Q62226 25-198) (ligand)

molecular target: carboxyl-terminal Myc-tagged Ptc-CTD (mouse Ptc with a 140-residue carboxyl-terminal deletion; amino acids 1-1,291) (mouse) (UniProt Q61115); experiment: competition with 0.9 nM 32P-Shh-N for binding to EcR-293 cells expressing Ptc-CTD, 4 C; KI from IC50

Row | Substance | Ki
4 | Shh-N H135A, E177A double mutant (EH) protein (from UniProt Q62226 25-198) (ligand) | 1.7 nM
5 | Shh-N SB altered protein (N51A, V52A, T56A, E168A) (from UniProt Q62226 25-198) (ligand) | 0.48 nM
6 | Shh-N SC mutant protein (P42A, K46A, R154A, S157A, S178A, K179A) (from UniProt Q62226 25-198) (ligand) | > 36 nM
7 | Shh-N SF protein (R154A, S157A) (from UniProt Q62226 25-198) (ligand) | 9.1 nM
8 | Shh-N SG protein (S178A, K179A) (from UniProt Q62226 25-198) (ligand) | 4.3 nM

Next, values leading:

Row | Ki | Substance
9 | 1.7 nM | Shh-N E177A (EA) mutant protein (from UniProt Q62226 25-198) (ligand)
10 | 0.63 nM | Shh-N H135A (HA) mutant protein (from UniProt Q62226 25-198) (ligand)
11 | 0.66 nM | Shh-N SA altered protein (K75A, E76A, Y81A, D105A, N116A, E189A, K195A) (from UniProt Q62226 25-198) (ligand)
12 | 0.84 nM | Shh-N SD altered protein (E90A, D132A, E138A) (from UniProt Q62226 25-198) (ligand)
13 | 2.4 nM | Shh-N SE protein (P42A, K46A) (from UniProt Q62226 25-198) (ligand)
